Paper PMC10899749

Key:
[1] = tested on: H-NS K120ace (Edwardsiella piscicida EIB202); assay: competition EMSA; settings: EMSA: 20 ng Cy5 probe, 20 mM Tris pH 8.0, 150 mM NaCl, 0.1 mM DTT, 0.1 mM EDTA, 200 ng poly(dI:dC), 25 C, 30 min; 10% PAGE in Tris-glycine at 4 C
[2] = tested on: H-NS (Edwardsiella piscicida EIB202); assay: competition EMSA; settings: EMSA: 20 ng Cy5 probe, 20 mM Tris pH 8.0, 150 mM NaCl, 0.1 mM DTT, 0.1 mM EDTA, 200 ng poly(dI:dC), 25 C, 30 min; 10% PAGE in Tris-glycine at 4 C

In the case of PesrB (esrB promoter), the binding signal (% H-NS K120ace-bound DNA lost) [1] is reported as 87 and the binding signal (% H-NS-bound DNA lost) [2] is reported as 43.
